Assay results published in paper doi:10.1101/2020.06.11.146753, “Insights into glycan import by a prominent gut symbiont” (bioRxiv, 2020).
Blank lines part the entries; values can stand above or below the binder they belong to.

How the values were obtained:
Bt1763 (SusC) = target: T1, Bt1763 (SusC) (Bacteroides thetaiotaomicron VPI-5482, UniProt Q8A6W3 26-1041); experiment: crystal structure; Bt1762-63 purified from B. theta in 10 mM Hepes/100 mM NaCl/0.4% C8E4 pH 7.5; crystallised without ligand and after incubation with 2.5 mM β2,6 FOS; conditions: both partners purified
T1 construct: Bt1763, SusC TonB-dependent transporter of the levan PUL, Bacteroides thetaiotaomicron VPI-5482; Untagged; isolated through the His6 tag on Bt1762; NTE invisible in the X-ray structures; plug domain absent from closed, empty transporters; also called SusC TonB-dependent transporter; source: B. thetaiotaomicron (Bt1762-his strain) grown on MM-fructose, outer membrane fraction in LDAO; purified …
T1 sequence (looked up): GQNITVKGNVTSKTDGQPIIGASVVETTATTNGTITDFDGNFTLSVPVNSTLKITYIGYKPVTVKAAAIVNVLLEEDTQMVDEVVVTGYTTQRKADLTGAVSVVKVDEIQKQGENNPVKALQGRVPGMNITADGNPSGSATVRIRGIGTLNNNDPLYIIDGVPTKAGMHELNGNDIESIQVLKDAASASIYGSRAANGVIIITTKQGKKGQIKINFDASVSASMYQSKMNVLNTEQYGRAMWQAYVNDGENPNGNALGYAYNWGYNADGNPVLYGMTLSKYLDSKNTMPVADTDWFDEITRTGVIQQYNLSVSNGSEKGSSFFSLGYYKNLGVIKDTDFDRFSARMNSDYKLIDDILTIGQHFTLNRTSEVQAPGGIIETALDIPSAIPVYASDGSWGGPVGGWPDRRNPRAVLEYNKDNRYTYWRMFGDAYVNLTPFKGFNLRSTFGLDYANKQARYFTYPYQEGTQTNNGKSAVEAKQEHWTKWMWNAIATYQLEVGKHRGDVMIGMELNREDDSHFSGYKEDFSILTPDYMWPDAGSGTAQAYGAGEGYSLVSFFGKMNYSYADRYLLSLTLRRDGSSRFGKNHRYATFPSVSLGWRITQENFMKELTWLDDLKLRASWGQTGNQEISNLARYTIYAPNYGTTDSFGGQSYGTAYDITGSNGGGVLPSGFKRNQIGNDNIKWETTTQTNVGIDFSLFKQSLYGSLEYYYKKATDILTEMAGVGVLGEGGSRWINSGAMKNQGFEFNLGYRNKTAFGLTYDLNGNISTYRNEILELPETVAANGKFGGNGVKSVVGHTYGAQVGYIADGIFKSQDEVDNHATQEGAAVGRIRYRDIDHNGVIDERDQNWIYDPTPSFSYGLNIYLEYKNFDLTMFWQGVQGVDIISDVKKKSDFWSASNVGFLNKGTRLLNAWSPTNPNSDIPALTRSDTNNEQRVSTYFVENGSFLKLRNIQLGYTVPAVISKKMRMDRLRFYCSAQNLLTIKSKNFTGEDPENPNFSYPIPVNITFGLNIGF

[1] = target: the molecule itself; experiment: native MS; purified Bt1762-63 in 0.5% C8E4, 0.2 M ammonium acetate, pH 6.9; ligand-free and with FOS fractions

binding result (Bt1763 (SusC)): binds
B1: Bt1762 (SusD), C-terminal His6 tag, from the B. theta Bt1762-his strain (natural protein, Bacteroides thetaiotaomicron VPI-5482, UniProt Q8A6W4 19-570, looked up)
chain: CDDFLDRQVPQGIVTGDQIASPEYVDNLVISAYAIWATGDDINSSFSLWNYDVRSDDCYKGGSGTEDGGVFNALEISKGINTTDWNINDIWKRLYQCITRANTALQSLDQMDEKTYPLKNQRIAEMRFLRGHAHFMLKQLFKKIVIVNDENMEPDAYNELSNTTYTNDEQWQKIADDFQFAYDNLPEVQIEKGRPAQAAAAAYLAKTYLYKAYRQDGADNALTGINEEDLKQVVKYTDPLIMAKGGYGLETDYSMNFLPQYENGAESVWAIQYSINDGTYNGNLNWGMGLTTPQILGCCDFHKPSQNLVNAFKTDSQGKPLFSTYDNENYEVATDNVDPRLFHTVGMPGFPYKYNEGYIIQKNDDWSRSKGLYGYYVSLKENVDPDCDCLKKGSYWASSLNHIVIRYADVLLMRAEALIQLNDGRITDAISLINEVRSRAAGSTMLIFNYKEDYGVNFKVTPYDLKAYAQDEAMKMLKWERRVEFGMESSRFFDLVRWGEAKDVINAYYVTEASRCSIYKNAGFTENKNEYLPVPFEQISASNGNYTQNFGW
modifications: lipid anchor (lipoprotein)
notes: Chromosomally tagged, expressed natively; always isolated together with Bt1763; also called SusD lid; WT Bt1762; source: B. thetaiotaomicron (Bt1762-his strain) grown on MM-fructose, outer membrane fraction in LDAO; purified with Bt1763 (IMAC, SEC); not shown: His6, C-terminal, kept

B2: Bt1762-63 SusCD complex (one Bt1762 and one Bt1763), the unit that pairs into SusC2D2 (complex, Bacteroides thetaiotaomicron VPI-5482)
chain 1: B1 chain
chain 2: T1 sequence (looked up)
modifications: lipid anchor (lipoprotein)
notes: Bt1762 (SusD), Bacteroides thetaiotaomicron VPI-5482; as the chain of m1. numbers count on: the mature protein; Bt1763 (SusC), Bacteroides thetaiotaomicron VPI-5482; as the chain of m2. numbers count on: the mature protein; Used for the self-association of the SusCD unit into the SusC2D2 dimer; also called Bt1762-Bt1763; SusCD monomer; source: B. thetaiotaomicron (Bt1762-his strain) grown on …
stoichiometry N [1]: 2
